From patent US20170260289A1 (Novo Nordisk, published 2017)
Numbering of substitutions follows the chain as printed. One block for each binder: values may come before it.

What was measured:
[1] = target: T1, TFPI (1-79) fragment, N-terminal and KPI-1 domain of TFPI with an N-terminally attached GSSGSSG tag (human, UniProt P10646 29-107); assay: SPR (Biacore T200), bispecific captured by anti-Fab kappa antibody, antigen as analyte, 1:1 Langmuir fit
T1 construct: also called tagged TFPI KPI-1/N-terminal; TFPI KPI-1
Description: (§1) Binding studies were performed on a Biacore T200 (GEHealthcare) that measures molecular interactions in real time through surface plasmon resonance. Experiments were run at 25° C. and the samples were stored at 15° C. in the sample compartment. The signal (RU, response units) reported by the Biacore is directly correlated to the mass on the individual sensor chip surfaces in four serial flow cells. Goat anti Fab Kappa Light Chain antibody (Nordic Biosite) was immobilized onto all four flow cells of a CM4 sensor chip according to the manufacturer's instructions. Capture of purified bispecific molecules was conducted by diluting the proteins into running buffer (10 mM Hepes 0.3 M NaCl, 5 mM CaCl₂, 0.05% surfactant P20, 10 mg/ml BSA, pH 7.4) and injected over flowcell 2, 3 or 4, creating a reference surface in flow cell 1 with only anti-Fab antibody immobilized. […] Binding of TFPI FL (SEQ ID NO: 1), TFPI (1-79), and TFPI KPI-2 proteins was conducted by injecting analyte (antigen) over all flow cells to allow for comparative analyses of binding to different captured bispecific molecules relative to binding to the reference surface. The TFPI (1-79) fragment spans the N-terminal and KPI-1 domain of TFPI with an N-terminally attached GSSGSSG tag (SEQ ID NO: 16). The TFPI KPI-2 fragment spans the KPI-2 domain of TFPI with a C-terminal HIS₆ tag (SEQ ID NO: 3). Antigens were diluted serially into running buffer, injected at 30 μl/min for 240 s and allowed to dissociate for 600 s or 14000 s. Prolonging the monitoring of dissociation phase for antigens that dissociates slowly with kd approaching 1E-5 s⁻¹ is crucial to get a robust value for the dissociation rate. The CM4 surface was regenerated after each injection cycle of analyte via injection of 10 mM Glycine, pH 2.1. This regeneration step removed the anti-TFPI bispecific molecule and any bound antigen from the immobilized capture antibody surface, and allowed for the subsequent binding of the next interaction sample pair.

[2] = target: TFPI KPI-2 fragment spanning the KPI-2 domain of TFPI with a C-terminal HIS6 tag (human, UniProt P10646 119-178); assay: as above
Description: as §1

[3] = target: T2, human TFPI alpha (full-length TFPIα) (human, UniProt P10646 29-304); assay: cell-based or functional assay
[4] = target: T3, endogenous TFPI of human plasma (human, UniProt P10646 29-304, limits assumed); assay: cell-based or functional assay
[5] = target: T2, human TFPI alpha (full-length TFPIα); assay: cell-based or functional assay; remark: listed apart in the source
[6] = target: T2, human TFPI alpha (full-length TFPIα); assay: cell-based or functional assay; remark: listed apart in the source
[7] = target: T3, endogenous TFPI of human plasma; assay: cell-based or functional assay; remark: listed apart in the source

Kd [1]: 0.9 nM
koff [1]: 0.0003 s⁻¹
kon [1]: 300000 M⁻¹ s⁻¹
Kd [2]: 0.01 nM
koff [2]: 6e-05 s⁻¹
kon [2]: 4e+06 M⁻¹ s⁻¹
B1: BiFab 9041 (bispecific antibody)
heavy 1: EVQLVESGGGLVKPGGSLRLSCAASGFTFSNYAMSWVRQTPEKRLEWVATISRSGSYSYFPDSVQGRFTISRDNAKNSLYLQMNSLRAEDTAVYYCARLGGYDEGDAMDSWGQGTTVTVSSASTKGPSVFPLAPCSRSTSESTAALGCLVKDYFPEPVTVSWNSGALTSGVHTFPAVLQSSGLYSLSSVVTVPSSSLGTKTYTCNVDHKPSNTKVDKRVESKYGPPC
light 1: DIVMTQTPLSLSVTPGQPASISCKSSQSLLESDGKTYLNWYLQKPGQSPQLLIYLVSILDSGVPDRFSGSGSGTDFTLKISRVEAEDVGVYYCLQATHFPQTFGGGTKVEIKRTVAAPSVFIFPPSDEQLKSGTASVVCLLNNFYPREAKVQWKVDNALQSGNSQESVTEQDSKDSTYSLSSTLTLSKADYEKHKVYACEVTHQGLSSPVTKSFNRGEC
heavy 2: QVQLKQSGPGLVQPSQSLSITCTVSGFSLTNYGVHWVRQSPGKGLEWLAVIWRGGSIDYNAAFMSRLSITKDNSKSQVFFKMNSLQADDTAIYYCAKNSHGNYVGYAMDYWGQGTSVTVSSASTKGPSVFPLAPCSRSTSESTAALGCLVKDYFPEPVTVSWNSGALTSGVHTFPAVLQSSGLYSLSSVVTVPSSSLGTKTYTCNVDHKPSNTKVDKRVESKYGPPC
light 2: GIVMTQSQKFMSTTVGDRVSITCKASQSVGPAVAWYQQKPGQSPKLLIYSASNRYTGVPDRFTGSGSGADFTLTISNLHSEDLADYFCQQYTSYPTFGGGTKLEIKRTVAAPSVFIFPPSDEQLKSGTASVVCLLNNFYPREAKVQWKVDNALQSGNSQESVTEQDSKDSTYSLSSTLTLSKADYEKHKVYACEVTHQGLSSPVTKSFNRGEC
modifications: C-terminal cysteine linked through the bis-maleimide linker to the C-terminal cysteine of the other Fab's heavy chain; C-terminal cysteine linked through 1,16-bis(2,5-pyrroledione-1-yl)-4,13-diaza-7,10-dioxa-3,14-dioxohexadecane to the C-terminal cysteine of the other Fab's heavy chain
notes: also called Fab 0088 conjugated to Fab 0295

Peak (nM); thrombin generation, FVIII-neutralised plasma + 10 nM TFPIα; 10 nM Fab [3]: 10.9 nM
Peak (nM); thrombin generation, FVIII-neutralised plasma + 10 nM TFPIα; 50 nM Fab [3]: 31.8 nM
Peak (nM); thrombin generation, FVIII-neutralised plasma + 10 nM TFPIα; 100 nM Fab [3]: 33.8 nM
ttPeak (min); thrombin generation, FVIII-neutralised plasma + 10 nM TFPIα; 10 nM Fab [3]: 25.2 min
ttPeak (min); thrombin generation, FVIII-neutralised plasma + 10 nM TFPIα; 50 nM Fab [3]: 11.5 min
ttPeak (min); thrombin generation, FVIII-neutralised plasma + 10 nM TFPIα; 100 nM Fab [3]: 10.8 min
Peak (nM); thrombin generation, FVIII-neutralised plasma, endogenous TFPI; 10 nM Fab [4]: 94 nM
Peak (nM); thrombin generation, FVIII-neutralised plasma, endogenous TFPI; 50 nM Fab [4]: 101 nM
Peak (nM); thrombin generation, FVIII-neutralised plasma, endogenous TFPI; 100 nM Fab [4]: 103 nM
ttPeak (min); thrombin generation, FVIII-neutralised plasma, endogenous TFPI; 10 nM Fab [4]: 8.4 min
ttPeak (min); thrombin generation, FVIII-neutralised plasma, endogenous TFPI; 50 nM Fab [4]: 8.2 min
ttPeak (min); thrombin generation, FVIII-neutralised plasma, endogenous TFPI; 100 nM Fab [4]: 8.2 min
B2: Fab 0295 (Fab, V domains shown)
VH: QVQLKQSGPGLVQPSQSLSITCTVSGFSLTNYGVHWVRQSPGKGLEWLAVIWRGGSIDYNAAFMSRLSITKDNSKSQVFFKMNSLQADDTAIYYCAKNSHGNYVGYAMDYWGQGTSVTVSS
VL: GIVMTQSQKFMSTTVGDRVSITCKASQSVGPAVAWYQQKPGQSPKLLIYSASNRYTGVPDRFTGSGSGADFTLTISNLHSEDLADYFCQQYTSYPTFGGGTKLEIKR

Peak (nM); thrombin generation, FVIII-neutralised plasma + 20 nM TFPIα; 200 nM antibody [5]: 23.7 nM
ttPeak (min); thrombin generation, FVIII-neutralised plasma + 20 nM TFPIα; 200 nM antibody [5]: 13.6 min
B3: mAb 2F22 (antibody, IgG1, V domains shown)
VH: B2 VH
VL: B2 VL

Peak (nM); thrombin generation, FVIII-neutralized plasma + 10 nM TFPI alpha; 100.0 nM mAb [6]: 44.9 nM
ttPeak (min); thrombin generation, FVIII-neutralized plasma + 10 nM TFPI alpha; 100.0 nM mAb [6]: 11.7 min
Peak (nM); thrombin generation, FVIII-neutralized plasma, no TFPI added; 10.0 nM mAb [7]: 140 nM
ttPeak (min); thrombin generation, FVIII-neutralized plasma, no TFPI added; 10.0 nM mAb [7]: 7.8 min
B4: mAb 0336 (antibody, human IgG1, kappa, V domains shown)
VH: B2 VH
VL: B2 VL

Peak (nM); thrombin generation, FVIII-neutralised plasma + 20 nM TFPIα; 200 nM antibody [5]: 20.9 nM
ttPeak (min); thrombin generation, FVIII-neutralised plasma + 20 nM TFPIα; 200 nM antibody [5]: 14.6 min
B5: mAb 2F3 (antibody, IgG1, V domains shown)
VH: B2 VH with T30S, N31S, A49G, I57T, Y59F, L67V, I69F
VL: DIVMTQSQKFMSTTVGDKVSIPCKASENVGAAVAWYQQKPGQSPTLLIYSASNRYTGIPDRFTGSGSGTDFTLTIRTVQSEDLADYFCQQYTNYPTFGGGTKLEIKR

Peak (nM); thrombin generation, FVIII-neutralised plasma + 10 nM TFPIα; 10 nM Fab [3]: 12.7 nM
Peak (nM); thrombin generation, FVIII-neutralised plasma + 10 nM TFPIα; 50 nM Fab [3]: 42.9 nM
Peak (nM); thrombin generation, FVIII-neutralised plasma + 10 nM TFPIα; 100 nM Fab [3]: 54.2 nM
ttPeak (min); thrombin generation, FVIII-neutralised plasma + 10 nM TFPIα; 10 nM Fab [3]: 29 min
ttPeak (min); thrombin generation, FVIII-neutralised plasma + 10 nM TFPIα; 50 nM Fab [3]: 21.2 min
ttPeak (min); thrombin generation, FVIII-neutralised plasma + 10 nM TFPIα; 100 nM Fab [3]: 20.2 min
Peak (nM); thrombin generation, FVIII-neutralised plasma, endogenous TFPI; 10 nM Fab [4]: 85.6 nM
Peak (nM); thrombin generation, FVIII-neutralised plasma, endogenous TFPI; 50 nM Fab [4]: 85.2 nM
Peak (nM); thrombin generation, FVIII-neutralised plasma, endogenous TFPI; 100 nM Fab [4]: 90.2 nM
ttPeak (min); thrombin generation, FVIII-neutralised plasma, endogenous TFPI; 10 nM Fab [4]: 11.5 min
ttPeak (min); thrombin generation, FVIII-neutralised plasma, endogenous TFPI; 50 nM Fab [4]: 11.6 min
ttPeak (min); thrombin generation, FVIII-neutralised plasma, endogenous TFPI; 100 nM Fab [4]: 11.6 min
B6: Fab 0088 (Fab, V domains shown)
VH: EVQLVESGGGLVKPGGSLRLSCAASGFTFSNYAMSWVRQTPEKRLEWVATISRSGSYSYFPDSVQGRFTISRDNAKNSLYLQMNSLRAEDTAVYYCARLGGYDEGDAMDSWGQGTTVTVSS
VL: DIVMTQTPLSLSVTPGQPASISCKSSQSLLESDGKTYLNWYLQKPGQSPQLLIYLVSILDSGVPDRFSGSGSGTDFTLKISRVEAEDVGVYYCLQATHFPQTFGGGTKVEIKR

Peak (nM); thrombin generation, FVIII-neutralised plasma + 10 nM TFPIα; 10 nM Fab [3]: 0.4 nM
Peak (nM); thrombin generation, FVIII-neutralised plasma + 10 nM TFPIα; 50 nM Fab [3]: 0.8 nM
Peak (nM); thrombin generation, FVIII-neutralised plasma + 10 nM TFPIα; 100 nM Fab [3]: 1.4 nM
ttPeak (min); thrombin generation, FVIII-neutralised plasma + 10 nM TFPIα; 10 nM Fab [3]: 106 min
ttPeak (min); thrombin generation, FVIII-neutralised plasma + 10 nM TFPIα; 50 nM Fab [3]: 76.2 min
ttPeak (min); thrombin generation, FVIII-neutralised plasma + 10 nM TFPIα; 100 nM Fab [3]: 48.1 min
Peak (nM); thrombin generation, FVIII-neutralised plasma, endogenous TFPI; 10 nM Fab [4]: 10 nM
Peak (nM); thrombin generation, FVIII-neutralised plasma, endogenous TFPI; 50 nM Fab [4]: 19.8 nM
Peak (nM); thrombin generation, FVIII-neutralised plasma, endogenous TFPI; 100 nM Fab [4]: 29.6 nM
ttPeak (min); thrombin generation, FVIII-neutralised plasma, endogenous TFPI; 10 nM Fab [4]: 21 min
ttPeak (min); thrombin generation, FVIII-neutralised plasma, endogenous TFPI; 50 nM Fab [4]: 10.2 min
ttPeak (min); thrombin generation, FVIII-neutralised plasma, endogenous TFPI; 100 nM Fab [4]: 8.9 min
B7: Fab 0313 (Fab, V domains shown)
VH: B6 VH with T40A, E42G, R44G, A49S, F60Y, P61A, Q65K
VL: B6 VL

Peak (nM); thrombin generation, FVIII-neutralised plasma + 20 nM TFPIα; 200 nM antibody [5]: 17.2 nM
ttPeak (min); thrombin generation, FVIII-neutralised plasma + 20 nM TFPIα; 200 nM antibody [5]: 26.2 min
B8: mAb 2021 (antibody, IgG4, V domains shown)
VH: B6 VH
VL: B6 VL

Peak (nM); thrombin generation, FVIII-neutralized plasma + 10 nM TFPI alpha; 100.0 nM mAb [6]: 28.3 nM
ttPeak (min); thrombin generation, FVIII-neutralized plasma + 10 nM TFPI alpha; 100.0 nM mAb [6]: 24.5 min
Peak (nM); thrombin generation, FVIII-neutralized plasma, no TFPI added; 10.0 nM mAb [7]: 118 nM
ttPeak (min); thrombin generation, FVIII-neutralized plasma, no TFPI added; 10.0 nM mAb [7]: 8.5 min
B9: mAb 0310 (antibody, human IgG1, kappa, V domains shown)
VH: B6 VH
VL: B6 VL

Peak (nM); thrombin generation, FVIII-neutralised plasma + 20 nM TFPIα; 200 nM antibody [5]: 0 nM
B10: mAb 1F91 (antibody, IgG1, V domains shown)
VH: DVQLQESGPGLVKPSQSLSLTCTVSGYSITSDYAWNWIRQFPGNKLEWMGYISYSGSTSYNPSLKSRISITRDTSKNQFFLQLNSVTTEDTATYYCARWAYDGPWGQGTLVTVSA
VL: QIVLSQSPALLSASPGEKVTMTCRASSSVSHMHWYQQKPGSSPKPWIYATSNLASGVPARFSGSGSGTSYSLTITRVEAEDAATYYCQQWSSNPFTFGSGTKLEIKR
